Values quoted from earlier work as cited in publication PMC7768499.
pKd: −log10 of the molar value.

What was measured:
IgA2 (Homo sapiens) = IgA2 (Homo sapiens) (UniProt P01877)
IgA (Homo sapiens) = IgA (Homo sapiens) (UniProt P01876)
IgA1 (Homo sapiens) = IgA1 (Homo sapiens) (UniProt P01876)
Sequence of IgA1 (Homo sapiens) (P01876 whole entry): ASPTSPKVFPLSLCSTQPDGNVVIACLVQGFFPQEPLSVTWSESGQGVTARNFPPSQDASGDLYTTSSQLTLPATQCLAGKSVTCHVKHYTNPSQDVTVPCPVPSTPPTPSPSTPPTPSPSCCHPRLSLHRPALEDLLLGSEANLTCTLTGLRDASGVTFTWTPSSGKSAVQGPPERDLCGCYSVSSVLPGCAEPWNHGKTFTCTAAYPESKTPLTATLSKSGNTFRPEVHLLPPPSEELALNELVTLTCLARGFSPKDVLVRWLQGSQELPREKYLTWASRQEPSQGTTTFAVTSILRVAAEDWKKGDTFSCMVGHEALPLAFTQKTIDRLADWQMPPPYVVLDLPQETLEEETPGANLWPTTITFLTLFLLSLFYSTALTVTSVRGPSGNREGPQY

Sequence of FcαRI (P24071 22-287): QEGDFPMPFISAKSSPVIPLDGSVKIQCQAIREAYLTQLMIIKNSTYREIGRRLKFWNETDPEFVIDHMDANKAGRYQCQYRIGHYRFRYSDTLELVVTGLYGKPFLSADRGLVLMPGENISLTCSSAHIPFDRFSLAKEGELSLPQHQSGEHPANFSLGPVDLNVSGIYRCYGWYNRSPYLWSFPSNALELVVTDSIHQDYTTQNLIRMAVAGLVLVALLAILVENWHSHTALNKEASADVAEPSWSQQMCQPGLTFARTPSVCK
Sequence of IgA2 (Homo sapiens) (P01877 whole entry): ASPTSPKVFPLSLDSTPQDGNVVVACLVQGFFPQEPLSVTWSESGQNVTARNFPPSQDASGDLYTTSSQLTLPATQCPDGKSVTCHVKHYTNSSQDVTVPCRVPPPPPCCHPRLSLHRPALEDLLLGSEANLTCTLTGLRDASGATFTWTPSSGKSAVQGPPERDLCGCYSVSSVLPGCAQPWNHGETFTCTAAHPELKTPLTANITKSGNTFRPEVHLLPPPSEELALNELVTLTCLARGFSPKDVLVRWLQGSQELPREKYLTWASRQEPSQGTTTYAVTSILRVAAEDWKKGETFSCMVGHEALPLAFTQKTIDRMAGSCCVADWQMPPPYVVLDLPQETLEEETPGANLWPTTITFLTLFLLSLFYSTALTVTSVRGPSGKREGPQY
Sequence of IgA (Homo sapiens) (P01876 whole entry): as the sequence (P01876 whole entry) above

FcαRI (from UniProt P24071)
pKd (IgA2 (Homo sapiens)): 7.70
pKd (IgA (Homo sapiens)): 7.70
pKd (IgA1 (Homo sapiens)): 6.81
